This passage reports average neutralization titer results from patent publication US20190359693A1.

The target in the assay is hemagglutinin (HA) of influenza virus H3N? A/Env/MPJ193/09 (influenza A virus). Nature of the assay: cell-based or functional assay.

B1: MD2407 (bispecific antibody)
chain: EVQLVESGGGLVQPGGSLRLSCAVSISIFDIYAMDWYRQAPGKQRDLVATSFRDGSTNYADSVKGRFTISRDNAKNTLYLQMNSLKPEDTAVYLCHVSLYRDPLGVAGGMGVYWGKGALVTVSSGGGGSGGGGSEVQLVESGGGLVQAGGSLKLSCAASGRTYAMGWFRQAPGKEREFVAHINALGTRTYYSDSVKGRFTISRDNAKNTEYLEMNNLKPEDTAVYYCTAQGQWRAAPVAVAAEYEFWGQGTQVTVSSGGGGSGGGGSEVQLVESGGGLVQPGGSLRLSCAATGFTLENKAIGWFRQTPGSEREGVLCISKSGSWTYYTDSMRGRFTISRDNAENTVYLQMDSLKPEDTAVYYCATTTAGGGLCWDGTTFSRLASSWGQGTQVTVSSGGGGSGGGGSEVQLVESGGGLVQPGGSLKLSCAASGFTFSTSWMYWLRQAPGKGLEWVSVINTDGGTYYADSVKDRFTISRDNAKDTLYLQMSSLKSEDTAVYYCAKDWGGPEPTRGQGTQVTVSS
In the case of B1, the average neutralization titer is 24.5 nM.
